Measurements as given in article PMC4728409.

Experiments:
[1] = target: phosphorylated pS674 peptide of UHRF1 (human (RefSeq NP_037414.3)); assay: SPR; BIAcore; biotinylated peptides on a streptavidin chip (about 250 RU); GST-BRCA1-BRCT as analyte, 39 nM to 2.5 μM (legend: 17 nM to 2.5 μM), 30 μl min^-1; 150 mM NaCl, 0.005% Polysorbate 20, 10 mM HEPES pH 7.4, 1 mM PMSF
BRCA1 = BRCA1 (UniProt P38398); assay: co-immunoprecipitation; conditions: reference: wild type; sites S674
BRCA1 BRCT domain = BRCA1 BRCT domain (UniProt P38398); assay: far-Western, GST-BRCT overlay on His-UHRF1; conditions: reference: kinase-treated His-UHRF1 WT; sites S674

GST-BRCT (wild type) domain of BRCA1 (domain or fragment)
Kd [1]: 356 nM

UHRF1 (from UniProt Q96T88-2) S674A
binding against the reference (BRCA1): weaker

UHRF1 (from UniProt Q96T88-2) kinase-treated His-UHRF1 S674A
binding against the reference (BRCA1 BRCT domain): lost
